Laboratory results reported in US6040160A, “Method of producing L-lysine by fermentation” (Ajinomoto Co., Inc., priority 1993, dated 2000).

B1: Wild type: wild type aspartokinase III (AKIII) of E. coli encoded by lysC on pLYSC1 (protein, UniProt P08660 2-449, looked up)
Lysine-sensitive …: SEIVVSKFGGTSVADFDAMNRSADIVLSDANVRLVVLSASAGITNLLVALAEGLEPGERFEKLDAIRNIQFAILERLRYPNVIREEIERLLENITVLAEAAALATSPALTDELVSHGELMSTLLFVEILRERDVQAQWFDVRKVMRTNDRFGRAEPDIAALAELAALQLLPRLNEGLVITQGFIGSENKGRTTTLGRGGSDYTAALLAEALHASRVDIWTDVPGIYTTDPRVVSAAKRIDEIAFAEAAEMATFGAKVLHPATLLPAVRSDIPVFVGSSKDPRAGGTLVCNKTENPPLFRALALRRNQTLLTLHSLNMLHSRGFLAEVFGILARHNISVDLITTSEVSVALTLDTTGSTSTGDTLLTQSLLMELSALCRVEVEEGLALVALIGNDLSKACGVGKEVFGVLEPFNIRMICYGASSHNLCFLVPGEDAEQVVQKLHSNLFE
B2: wild type DDPS: wild type dihydrodipicolinate synthase of E. coli (dapA product) (protein, UniProt P0A6L2 1-292, looked up)
4-hydroxy-tetrahydrodipicolina …: MFTGSIVAIVTPMDEKGNVCRASLKKLIDYHVASGTSAIVSVGTTGESATLNHDEHADVVMMTLDLADGRIPVIAGTGANATAEAISLTQRFNDSGIVGCLTVTPYYNRPSQEGLYQHFKAIAEHTDLPQILYNVPSRTGCDLLPETVGRLAKVKNIIGIKEATGNLTRVNQIKELVSDDFVLLSGDDASALDFMQLGGHGVISVTANVAARDMAQMCKLAAEGHFAEARVINQRLMPLHNKLFVEPNPIPVKWACKELGLVATDTLRLPMTPITDSGRETVRAALKHAGLL
B3: pdapAS24 (protein)
chain: MFTGSIVAIVTPMDEKGNVCRASLKKLIDYHVASGTSAIVSVGTTGESATLNHDEHADVVMMTLDLADGRIPVIAGTGANATAEAISLTQRFNDSGIVGCLTVTPYYNRPSQEGLYQYFKAIAEHTDLPQILYNVPSRTGCDLLPETVGRLAKVKNIIGIKEATGNLTRVNQIKELVSDDFVLLSGDDASALDFMQLGGHGVISVTTNVAARDMAQMCKLAAEEHFAEARVINQRLMPLHNKLFVEPNPIPVKWACKELGLVATDTLRLPMTPITDSGRETVRAALKHAGLL

What was measured:
Assay type in all cases: biochemical, E. coli
AKIII = AKIII enzyme activity and inhibition by L-lysine, cell-free extract of GT3 transformants
From the text: No. 24, No. 43, No. 48, No. 60, No. 80, No. 117, No. 126, No. 149, No. 150, No. 156, No. 158, No. 167, No. 169 and No. 172 were selected as representative strains of the aforementioned 14 groups. Mutant plasmids derived from pLYSC1 were recovered from each of them, and designated as pLYSC1*24, pLYSC1*43, pLYSC1*48, pLYSC1*60, pLYSC1*80, pLYSC1*117, pLYSC1*126, pLYSC1*149, pLYSC1*150, pLYSC1*156, pLYSC1*158, pLYSC1*167, pLYSC1*169 and pLYSC1*172, respectively. An AK completely deficient strain GT3 was transformed with them and the wild type pLYSC1. A cell-free extract was prepared from each of transformed strains, and the enzyme activity of AKIII was measured.
The cell-free extract (crude enzyme solution) was prepared as follows. A transformed strain was cultivated in a 2×TY medium, and collected at an OD660 of about 0.8. Cells were washed with 0.02 M KH2 PO4 (pH 6.75)-0.03 M β-mercaptoethanol under a condition of 0° C., and the cells were ruptured by sonication (0° C., 100 W, 30 minutes×4). A ruptured cell solution was centrifuged at 33 krpm for 1 hour under a condition of 0° C. to obtain a supernatant,to which ammonium sulfate was added to give 80% saturation. After centrifugation, a pellet was dissolved in 0.02 M KH2 PO4 (pH 6.75)-0.03 M β-mercaptoethanol, and stored at 0° C. overnight.
The enzyme activity of AKIII was measured in accordance with a method of Stadtman et al. (Stadtman, E. R., Cohen, G. N., LeBras, G., and Robichon-Szulmajster, H., J. Biol. Chem., 236, 2033 (1961)). Namely, a reaction solution having the following composition was incubated at 27° C. for 45 minutes, and an FeCl3 solution (2.8 N HCl 0.4 ml +12% TCA 0.4 ml +5% FeCl3. 6H2 O/0.1 N HCl 0.7 ml) was added to develop a color, which was centrifuged followed by measurement of absorbance of a supernatant at 540 nm. The activity was indicated by an amount of hydroxamic acid generated per minute (1 U=1 μmol/min). The molar absorption coefficient was 600. Potassium aspartate was removed from the reaction solution to be used as a blank.
Various concentrations of L-lysine were added to the enzyme reaction solution for measurement of the enzyme activity of AK, and the degree of inhibition by L-lysine was examined.
On the contrary, the mutant AKIII's obtained this time had various degrees of desensitization, however, inhibition by L-lysine was desensitized in all of 14 species. […] The specific activity per total protein, which might be affected by growth situations of cell and preparation of samples, was equal to or more than that of the wild type in almost all cases, in which there was little problem of decrease in activity due to the introduction of mutation (Table 3). […]

DDPS = DDPS enzyme activity and inhibition by L-lysine, cell-free extract of JE7627 transformants
Procedure: Mutant pdapA2's were recovered from the 36 strains described above. A dapA-deficient strain, JE7627 was transformed with them and the wild type pdapA2, respectively. A cell-free extract was prepared from each of the transformed strains, and the enzyme activity of DDPS was measured.
(§1) The cell-free extract (crude enzyme solution) was prepared as follows. A transformed strain was cultivated in a 2×TY medium (1.6% Bacto trypton, 1% Yeast extract, 0.5% NaCl), and collected at an optical density at 660 nm (OD660) of about 0.8. A cell pellet was washed with 0.85% NaCl under a condition of 0° C., and suspended in 20 mM potassium phosphate buffer (pH 7.5) containing 400 mM KCl. The cells were ruptured by sonication (0° C., 200 W, 10 minutes). A ruptured cell solution was centrifuged at 33 krpm for 1 hour under a condition of 0° C. to obtain a supernatant to which ammonium sulfate was added to give 80% saturation to be stored at 0° C. overnight followed by centrifugation. A pellet was dissolved in 20 mM potassium phosphate buffer (pH 7.5)-400 mM KCl.
(§2) The enzyme activity of DDPS was measured in accordance with a method of Yugari et al. (Yugari, Y. and Gilvarg, C., J. Biol. Chem., 240, 4710 (1962)). Namely, the absorbance of a reaction solution having the following composition was measured at 37° C. with a spectrophotometer at a wavelength of 270 nm in a time-dependent manner. And generated dihydrodipicolinate was measured. Sodium pyruvate was removed from the reaction system to be used as a blank.
Various concentrations of L-lysine were added to the enzyme reaction solution during measurement of the enzyme activity of DDPS, and the degree of inhibition by L-lysine was examined.

[1] = test system: DDPS (dihydrodipicolinate synthase); experiment: DDPS activity of crude enzyme solutions from W3110(tyrA) strains and inhibition by L-lysine
Procedure: as §1, with “A pellet was dissolved in 20 mM potassium phosphate buffer (pH 7.5)-400 mM KCl.” left out
as §2, with “Sodium pyruvate was removed from the reaction system to be used as a blank.” left out
Crude enzyme solutions were prepared from W3110(tyrA), W3110(tyrA)/pdapA and W3110(tyrA)/pdapA* in the same manner as in Example 1, the DDPS (dihydrodipicolinate synthase) activity was measured, and the degree of inhibition of the DDPS activity by L-lysine was examined.

[2] = in the presence of 5 mM of L-lysine
[3] = various concentrations of L-lysine, FIG. 2

Molecule | Inhibition of AKIII by L-lysine (AKIII; 5 mM of L-lysine) | Specific activity (AKIII; 1 U=1 μmol/min hydroxamic acid) [U/mg protein] | Degree of desensitization of inhibition (AKIII; AK activity in the presence of 100 mM of L-lysine with respect to AK activity in the absence of L-lysine) [%] | Inhibition of AKIII by L-lysine (AKIII; [2]) | Inhibition of DDPS by L-lysine (DDPS; [2]) [%] | Inhibition of DDPS by L-lysine (DDPS; [3]) | Specific activity of DDPS as compared with the wild type (DDPS) | Specific activity relative to the wild type enzyme (DDPS) [1]
B1 | about 100% | 0.0247 | 0 | about 100% |  |  |  | 
B2 |  |  |  |  | ~80 | suffered inhibition by L-lysine |  | 
B3 |  |  |  |  |  | desensitized | lowered a little | about 1/2
